Assay results reported in US6348586.

Target: human CCR5 transiently expressed on CCC/CD4 cells (human) (UniProt P51681)
Assay: cell-based or functional assay
Details: scale: fraction of the reverse-construct negative control

UniProt P51681, sequence (P51681 whole entry): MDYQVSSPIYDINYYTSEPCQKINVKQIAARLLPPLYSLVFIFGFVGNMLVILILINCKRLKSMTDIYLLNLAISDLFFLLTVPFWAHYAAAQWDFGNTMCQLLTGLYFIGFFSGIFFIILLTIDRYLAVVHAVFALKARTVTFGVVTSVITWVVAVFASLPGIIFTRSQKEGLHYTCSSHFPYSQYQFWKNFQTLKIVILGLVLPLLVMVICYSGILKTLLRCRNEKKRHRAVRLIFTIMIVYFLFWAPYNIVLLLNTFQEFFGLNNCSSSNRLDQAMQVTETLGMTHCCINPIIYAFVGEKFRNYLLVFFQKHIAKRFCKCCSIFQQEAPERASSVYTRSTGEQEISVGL

## KSHV viral macrophage inflammatory protein I (vMIP-I) encoded by ORF K6 (ligand)
  NSI HIV-1 foci generation (immunostaining for retroviral antigen) in CCC/CD4 cells cotransfected with CCR5 and vMIP-I: < 0.5
